In paper PMC11870394 (bioRxiv, 2025):

Biological target: RSV prefusion F (PR-DM) (respiratory syncytial virus A, UniProt P03420)
Experiment: cryo-EM structure

B1: RSV-2245 Fab (Fab, V domains shown)
VH: QVQLVQSGAEVKKPGASVKVSCKASGYSFSSFGVSWVRQAPGQGLEWLGWISAYNGNTDYAQKVQGRLTMTTDTSTNTAYMELRNLRSDDTAVYYCARDPPASAAAMFDYWGQGTLVTVSS
VL: not shown
stoichiometry N: 3 Fab per F trimer

B2: RSV-3301 Fab (Fab, V domains shown)
VH: QVQLVESGPTLVKPTQTLTLTCSFSGFSLSTRGVGVGWVRQPPGKALECLGFTYWDGDEYYSPSLRNRVTISKDTSKNQVVLTLTNMDPVDTATYFCVHSDLYDRGGYYLYYFDYWGQGTLVTVSS
VL: DIRVTQSPSSLSASVGDRVTITCRASQTIASYVNWYQQKPGRAPELLIYAASILQSGVPSRFSGRGSGTDFTLTINGLQPEDFATYYCQQSYSSPWTFGQGTKVEIK
stoichiometry N: 3 Fab per F trimer
